Measured values reported in IntAct's records for PubMed 15660133.

B1: Protein phosphatase Slingshot homolog 1 (Homo sapiens), Q8WYL5 (parent)
chain: MALVTLQRSPTPSAASSSASNSELEAGSEEDRKLNLSLSESFFMVKGAALFLQQGSSPQGQRSLQHPHKHAGDLPQHLQVMINLLRCEDRIKLAVRLESAWADRVRYMVVVYSSGRQDTEENILLGVDFSSKESKSCTIGMVLRLWSDTKIHLDGDGGFSVSTAGRMHIFKPVSVQAMWSALQVLHKACEVARRHNYFPGGVALIWATYYESCISSEQSCINEWNAMQDLESTRPDSPALFVDKPTEGERTERLIKAKLRSIMMSQDLENVTSKEIRNELEKQMNCNLKELKEFIDNEMLLILGQMDKPSLIFDHLYLGSEWNASNLEELQGSGVDYILNVTREIDNFFPGLFAYHNIRVYDEETTDLLAHWNEAYHFINKAKRNHSKCLVHCKMGVSRSASTVIAYAMKEFGWPLEKAYNYVKQKRSITRPNAGFMRQLSEYEGILDASKQRHNKLWRQQTDSSLQQPVDDPAGPGDFLPETPDGTPESQLPFLDDAAQPGLGPPLPCCFRRLSDPLLPSPEDETGSLVHLEDPEREALLEEAAPPAEVHRPARQPQQGSGLCEKDVKKKLEFGSPKGRSGSLLQVEETEREEGLGAGRWGQLPTQLDQNLLNSENLNNNSKRSCPNGMEDDAIFGILNKVKPSYKSCADCMYPTASGAPEASRERCEDPNAPAICTQPAFLPHITSSPVAHLASRSRVPEKPASGPTEPPPFLPPAGSRRADTSGPGAGAALEPPASLLEPSRETPKVLPKSLLLKNSHCDKNPPSTEVVIKEESSPKKDMKPAKDLRLLFSNESEKPTTNSYLMQHQESIIQLQKAGLVRKHTKELERLKSVPADPAPPSRDGPASRLEASIPEESQDPAALHELGPLVMPSQAGSDEKSEAAPASLEGGSLKSPPPFFYRLDHTSSFSKDFLKTICYTPTSSSMSSNLTRSSSSDSIHSVRGKPGLVKQRTQEIETRLRLAGLTVSSPLKRSHSLAKLGSLTFSTEDLSSEADPSTVADSQDTTLSESSFLHEPQGTPRDPAATSKPSGKPAPENLKSPSWMSKS

Variants of: B1
Conditions: with limk1_human LIMK1, P53667
limk1_human LIMK1, P53667, sequence (P53667 whole entry, looked up): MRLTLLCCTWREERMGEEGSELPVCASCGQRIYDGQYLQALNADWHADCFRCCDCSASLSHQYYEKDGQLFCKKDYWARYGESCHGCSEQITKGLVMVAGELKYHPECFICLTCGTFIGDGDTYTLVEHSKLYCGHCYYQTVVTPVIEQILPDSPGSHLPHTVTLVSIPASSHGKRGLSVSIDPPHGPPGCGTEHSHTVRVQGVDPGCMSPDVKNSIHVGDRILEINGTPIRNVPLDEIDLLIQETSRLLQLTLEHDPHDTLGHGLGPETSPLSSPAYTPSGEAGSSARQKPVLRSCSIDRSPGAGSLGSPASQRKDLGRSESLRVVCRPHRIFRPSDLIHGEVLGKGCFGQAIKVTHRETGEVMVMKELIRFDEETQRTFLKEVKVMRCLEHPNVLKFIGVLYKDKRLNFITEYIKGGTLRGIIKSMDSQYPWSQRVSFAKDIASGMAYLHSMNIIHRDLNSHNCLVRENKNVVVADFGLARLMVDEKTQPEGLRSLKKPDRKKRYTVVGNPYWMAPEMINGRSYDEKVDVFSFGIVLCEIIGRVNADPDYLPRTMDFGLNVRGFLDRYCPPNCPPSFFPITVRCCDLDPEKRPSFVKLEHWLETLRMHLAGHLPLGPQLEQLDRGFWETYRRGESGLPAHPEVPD

Row | effect of a mutation on the interaction | Variant
1 | disrupting interaction | C393S
